Source: patent US10100341B2, “Tailored oils produced from recombinant oleaginous microorganisms” (Corbion Biotech, Inc., priority 2011, dated 2018)

Each molecule was assayed on Prototheca moriformis (UTEX 1435) (assay: cDNA abundance by real-time RT-PCR under nitrogen depletion). Conditions: after 24 hours of culture in low nitrogen medium.
Format: cell-based
Protocol: A cDNA library was generated from Prototheca moriformis (UTEX 1435) using standard techniques. The Prototheca moriformis cells were grown for 48 hours under nitrogen replete conditions. […] After about 24 hours in culture, the nitrogen supply in the media was completely depleted. The collected samples were immediately frozen using dry ice and isopropanol. Total RNA was subsequently isolated from the frozen cell pellet samples and a portion from each sample was held in reserve for RT-PCR studies. The rest of the total RNA harvested from the samples was subjected to polyA selection. Equimolar amounts of polyA selected RNA from each condition was then pooled and used to generate a cDNA library in vector pcDNA 3.0 (Invitrogen). Roughly 1200 clones were randomly picked from the resulting pooled cDNA library and subjected to sequencing on both strands. Approximately 68 different cDNAs were selected from among these 1200 sequences and used to design cDNA-specific primers for use in real-time RT-PCR studies. RNA isolated from the cell pellet samples that were held in reserve was used as substrate in the real time RT-PCR studies using the cDNA-specific primer sets generated above. This reserved RNA was converted into cDNA and used as substrate for RT-PCR for each of the 68 gene specific primer sets. […] As discussed in the specification, nitrogen depletion/limitation is a known inducer of lipogenesis in oleaginous microorganisms. Fold increase refers to the fold increase in cDNA abundance after 24 hours of culture in low nitrogen medium.

Row | Molecule | Fold increased (cDNA abundance)
1 | NRAMP metal transporter promoter/5′UTR: putative nitrogen-regulated promoter/5′UTR, SEQ ID NO: 56 (nucleic acid, listed as Prototheca moriformis) DNA: ACTAATTGCAATCGTGCAGTAATCATCGATATGGTCACAAGTAGATCCCCTACTGACACCCTCTCGTACATGTAGGCAATGTCATCGGCGCCGTCCTGCTGACCGATGCCGACGTAGCAGAGCAGACCCGGGCCGATCTGGGATACGAGCCGGCCCTCCACCTGCGCTCGAGGTGGAATCAAGTAAATAACCAATACACTTTTCGACACCACACAGAGTTGCACGGACGGTGGCGTACCTCTACGCTCGCGCTCTTCACGCGCTGGACGACCGCACGCATGAGCCCGGGTGGCTTGGTCTGGGCTGCAAAAATGCACAACAAACAAGTATCAGACGCTCATGGATGCACACGCGCTCCCAAGCACGCTCAGACTAAATATTACAGTAGCTCGTATCTGATAAGATATCGAGACATACCGCTCAACTCACCCGCAAACTGCGCCCCGCCAGGTGATGCGCACAGGGCCCCACCATGCGATCCATCGCATCGCTCCTCGAGGGCGCTATCACGTGGCCGGAGAGCGTTCACAGCGTACGCCACTGTATCTGGGCGGTATGCGGTCCGTCAACATGGAGACAGATACCCGCACCACCACCTTGCAAGCTCTTCCATATTGGAAGTAGAAAATTGTAATTGTATCATCGCACGAGGGGCCAACTTGCCGTCGGCGAGCTGGGCGACGAACACCACCTGGACGTTGTCGAGACTCGCTCGTGCCGTGCGCCGGGCCGCTGGGTATCCAGACCGTCGCC | 9.65
2 | Aat03-Amino acid transporter 03 promoter/5′UTR: putative nitrogen-regulated promoter/5′UTR, SEQ ID NO: 64 (nucleic acid, listed as Prototheca moriformis) DNA: GATGGTGGGGTGTCTGCCTTGGGCTGGGTGATGGAGGCTGGTGGTGCGCGGGTTTCCTGATGCATTCTATCTACGCAGTGTCATGGTGTCCATTCCACACACCAGTACACCCTTACACTAAGGATCCATCCCTCCTTCCCTCTTCAGGACTACATGGACCCCACGAGCTACCGACCGGGCTTTCTCAAAAACGTCAAGGTCATGTTTGACATGCGGGACGTGGTGGACGACGTGCAAGGTGCGTCCGGAGTGCGCGCAAATGAGCAAGTCGGGCAATGTGTCGGGGTGGGCACCGGGGCTGGAGATCCGCGATCCCCGAGAAAACGCCGTACCACCCCCCGCGCTATTCCCTCGATTGCGCGCAGATGTGGTGACCGACACGGGGGACAACCTGGCGGACATGGGGCGCCGGACCTGGAAGCACGCCAAGTCGCACACGGGGAGGCTCGTGCAGTCCCCCCCATCGTACCTCAAGGGTCTCTTTGGTCGCGATCCAAAGTACGCTGGTGGCATGGCATGCCCGAAATGAACATCATGTGTGATCTCCGATTGCCAATGGCCACCTCCACGGACCACCTTGCAGGCGGAAGCGCAATCCAGGGCCCGAGCCTGACGAGGACGGAGACTCCTCGTCCAGCGCGGGGTCCCCGACCCGACGCAGCAGCCGACCCCTGCTAACCCGGCAACGATCGGACCAGCAACCTTGCTGTAGTTCCGATCCGTGATGACGGGCATTGCCGCCGCTCGATCCGCTTTGATGACTGTCTATTATTTGCGCGGAGCCCCCTCGGAACCCTACCCCGCTCTTGCAAGCCCCTTGCATCGGAGATCCTCGTGCGCCCGCCATGACCCCACTGGATTGCCCAACATCCTTCTTTATCGTGTAAAATGTGATTCCTCGGCTGCAATCGACTGGCCTTCGCTTCTGGCCCCAAGAGGGCTCGAACGTGCGGCAGCGAGGGCGCTGACACACCCAAGCCCTAGGGCTTTCAACGTCGGCTGCCAGGCCGGATAGGGGGATCGCCTCCTTTCCACCACCCACCTACGAGGGATTCGAGTCGGCTTCCAGCTCAGCTATTCGGCCGCGCCCCCGGCCCTGCAGACGTCCTCCAGTTTCCGAACAGGTCGCTCTCAGAACACCTGCCGCGGCTGCGATACGGCAGGCTCTCAAAGCGTCGAC | 7.87
3 | Aat05-Amino acid transporter 05 promoter/5′UTR: putative nitrogen-regulated promoter/5′UTR, SEQ ID NO: 66 (nucleic acid, listed as Prototheca moriformis) DNA: CCGAGCAGTTCATGGCCAAGTACAAGGACTAGAGACCGGAGGTCGGTAGGCTGAATGGAGCTGGCGTCGTCGTGCGCGACGTGCACGCGATGCGATACTACGACCCCACAAACGCATGCCTCCCATCTTGATGCCTTTCCGGCCATTTATACTATTTCTCATTTCGCTGTAACATCTTGAATAATAGAATTGCCCTGTGTCAAGTGGATTCCAAGAAATATTCTGTCCCAACAAAACAACCCAACCTGAAAACAACCTCAAATACCACCAGCCCTGCCCACCTGCCCAGTACACTTTTCCAATACCATCTCCCTACCTTCACGCGCAAGCGGCACCCATGCGCGACCAGGCTCGAAAGGATTTCACGACTCAGGACGAGCGAGTGGCGGCGCGACCGCCTGCCTGTTCGTCACGTGCCGTACGTCGGCGACCGCTAGAGCTTTGCCTGGCAACCCCCGGCTTCGTCAACCCGGCCAGCCAGGATCTCGACCACTCTACCGCGAAATCGCCTCAAGAAGTCGCCAAAAGTGCCGTACACCATGCTTCGCAGCGCTGTTCAAACTTGATGCCAATCTTGACAATCAGGTTGCTCGTTGGCTGCGTCCACATCGGCCGTGATTGCAGCAGGCGGGGATCGGACACGGAGGACGCGGCGTCACGCCGCGAACGCAGCCCGTAACTCTACATCAACGCGATATGTTGCGTAATCCCGCCCGGCTGCGCATTGTGACAACCCATTCGCGATGGATGGTCGGAAAATGGTGTGCCAACTGCCCTGAGGGACTCTCTCGCGAAACGGGCACGTCCCTGTATCCGAAACTGTGGCATGGCCTTGTCGACCACGCAAGCACGTGGACCCTAACACCACGAAAATAAGTAAAAAAGGTTGACATCCTCTACGAGCGAATTGTTTGCTCGACCCTTCATCGCACACTGTCATTATAATGCATCTAGCTCGGCGACAAGTTTAAAAAAGGCAGGCTGCATTATTCCATTTTGCCGTGGCGGCATGGGTGCCCATTTTATGAGGTTTGGGCTCTTGGGCAGCGACCGAGCCAGGTTGAGTCCCTCTCGCCCGTCGACAACGTTCCAAAGCCCATAAGTGGCTAATAAACAACTTGATGGTACCTGTACACTGCCAGTTCCTTCTTCCCCGGCCGAGGTTTACACGTGATGGCCATGGCTTCGCGTTTCAGGCTGACTTCCCATTCCGACTTTCCAGAGGGTCCGCGGACGCCGGGGGTTGGCTGCGTGAGGCCCACCCCTTGTTCCCCGCGTCCCGACAAACACAATTGCGTTACATAAGGGGGAAGCCGCCCCCCGTTCAGAGTGCAAACATCTTTCATTATATTTTTCAGTCGTCAGCGAAATCAAGTATGTCGCTGACAGGCATGAAGGCC | 6.71
4 | Aat02-Amino acid transporter 02 promoter/5′UTR: putative nitrogen-regulated promoter/5′UTR, SEQ ID NO: 63 (nucleic acid, listed as Prototheca moriformis) DNA: AGAGAGCGGAGGTGGGGTTGTGAGGTGGGGTTGCTGACCAGGAGCTCGCGTCGCCGAGCGCGACTCGCACACGGTCCAGTTACCCCCCCCTCCGCCCAAACGCAAGCCTCCCATCTTGATGCCTTTCCGGCCACCTATACTATTTCTTAGTTCGCTGTAACATCCAGACCGTCCTGAATAATAACAATGCCCTGTGTCAAGTGCATTCCTAAAAAAATTCTGTCCCAACCAACAATCCCACCTGAAATACCACCAGCCCTGCCCAGTACACTCTTCCAATACCATCTCCCTACCTCCACGCGCAAGCGACCCCCATGCGCGACCAGGCTCGAAAGTGATTTATGACTTGAGACGAGCGAGTGGCGGCGCGGTCGACTGCCTTTTCATCACGTGCCGTACGTCGGCGACCGCTAGGGCTTTGCACGGCAACGCACGGCTTCGCCAACCCGACCAGCCAGGACCTCGACTACTCTACCGCGAATTCGCCTCAAGAAGTCGCCAAATGTGCCATACACCATTCCTTACAGCACTGTTCAAACTTGATGCCAATTTTGACATTCGGGTTGCTCGTTGGCTGCGCCCACATCGGCCGTGAGTGCAGCAGGCGGGATCGGACACGGAGGACGCGGCGTCACGCCCCGAACGCAGCCCGTAACTCTACATCAACACGACGTGTTGCGTAATCCCGCCCGGCTGCGCATCGTGCCAACCCATTCGCGATGGATGGTCGGAAAATGGTGTGCCAACTGCCCTGAGGGAGGCTCTCGCGAAACGGGCACGTCCCTGAAACCGAAACTGTGGCCTTGTCGTCGGCCACGCAAGCACGTGGACCCTAAACACCAAGAAAATCAGTAAACAAGGTTGACATCCTCTACGGGCGAATTGTTTGCCCAACCCTTCATCGCACACTGCCATTATAATGCATCTAGCTCGGCGACAAGTTTAGAAAAGGCAGGCTGCATTGTTCCATTTCGCCGTGGCGGCGTGGGTGCCCATTTTACGAGGTTTGGGCTCCCGGGCAGCGACCGAGCCAGGTCGAGTCCCTCTCGCCCGTCGACAATGTTGCGAACCCCACAAGCGGCTAACAACAACTTGATGGTACCTGTACACTGCCAATTCCTTCTTCCCCGGCCGAGGTTTACACGTGATGGCCATGGCTTCGCATTCAGGCCGACTTCCCATTCCGACTTTCCAGAGGGTCCGCGGACGCTGGGGGTTGGCTGCCTGAGGCCCACCCTTTGTTCCCCGCGTCCCGACAAACACAATTGCGTTACATAAGGGGGAGCCGCCCCCGTTCAGAGTGCAGAAATCTTTCACTATATTTTCCAGTCGTCAGCGAAATCAAGT | 6.5
